The results in this text go back to article PMC2688778 (Structure (London, England : 1993), 2009).

Residue numbers refer to the chain shown, from its start.

Holding throughout (assay): fluorescence anisotropy
A general note: Polarisation of emitted light reports the rotation of a fluorescent probe.

Data set [1] concerns the target T1, RecE564 K643A (Escherichia coli K12, UniProt P15032 564-866, K643A).
T1 sequence: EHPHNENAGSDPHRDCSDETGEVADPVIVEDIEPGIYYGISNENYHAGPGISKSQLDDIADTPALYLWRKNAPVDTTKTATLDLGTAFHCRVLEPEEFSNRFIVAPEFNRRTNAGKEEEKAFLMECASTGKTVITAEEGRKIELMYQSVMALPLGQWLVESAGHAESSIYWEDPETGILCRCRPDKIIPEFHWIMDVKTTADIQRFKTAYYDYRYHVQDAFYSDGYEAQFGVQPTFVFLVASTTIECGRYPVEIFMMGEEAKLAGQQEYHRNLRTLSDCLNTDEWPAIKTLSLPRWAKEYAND

The target in data set [2] is T2, RecE564 Y778A (Escherichia coli K12, UniProt P15032 564-866, Y778A).
T2 sequence: T1 sequence with A80K, Y215A

Data set [3] addresses T3, RecE564 F661A (Escherichia coli K12, UniProt P15032 564-866, F661A).
T3 sequence: T1 sequence with A80K, F98A

In data set [4] the target is T4, RecE564 S615A (Escherichia coli K12, UniProt P15032 564-866, S615A).
T4 sequence: T1 sequence with S52A, A80K

The target in data set [5] is T5, RecE564 Y785A (Escherichia coli K12, UniProt P15032 564-866, Y785A).
T5 sequence: T1 sequence with A80K, Y222A

In data set [6] the target is T6, RecE564 W859A (Escherichia coli K12, UniProt P15032 564-866, W859A).
T6 sequence: T1 sequence with A80K, W296A

The target in data set [7] is T7, lambda exonuclease (bacteriophage lambda, UniProt P03697 1-226).
T7 sequence: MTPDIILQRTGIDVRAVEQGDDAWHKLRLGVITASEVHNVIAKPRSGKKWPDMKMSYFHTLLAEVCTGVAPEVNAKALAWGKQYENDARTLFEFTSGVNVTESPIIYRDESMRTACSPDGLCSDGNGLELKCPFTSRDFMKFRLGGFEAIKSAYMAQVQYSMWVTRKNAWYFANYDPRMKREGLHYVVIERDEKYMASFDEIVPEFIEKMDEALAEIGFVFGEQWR

B1: F25 (dsDNA)
DNA 1: TAGAGCTTAATTGCTGAATCTGGTG
DNA 2: CACCAGATTCAGCAATTAAGCTCTA
A word on the Kd: it is a measure of binding affinity in units of concentration. Low values mean tighter binding, high ones weaker binding. Take B1: the Kd was found to be 210 ± 6 nM in data set [1]; 130 ± 20 nM in data set [2]; 118 ± 8 nM in data set [3]; 100 ± 4 nM in data set [4]; 98 ± 9 nM in data set [5]; 350 ± 20 nM in data set [6]. In data set [7], the Kd turned out to be 161 ± 2 nM.
